Test results as given in the supplement of paper PMC7877785.
± gives the uncertainty stated by the source.

Experiment: self-splicing fitness, log relative to wild type (ln ratio); higher = more splicing; Tetrahymena group I intron in knt gene, E. coli kanamycin selection, DiMSum; sequences stand for … in CUCUCU…GGAGGGAAAAGUUAUCAGGCAUGCACCUGGUAGCUAGUCUUUAAACCAAUAGAUUGCAUCGGUUUAAAAGGCAAGACCGUCAAAUUGCGGGAAAGGGGUCAACAGCCGUUCAGUACCAAGUCUCAGGGGAAACUUUGAGAUGGCCUUGCAAAGGGUAUGGUAAUAAGCUGACGGACAUGGUCCUAACCACGCAGCCAAGUCCUAAGUCAACAGAUCUUCUGUUGAUAUGGAUGCAGUUCACAGACUAAAUGUCGGUCGGGGAAGAUGUAUUCUUCUCAUAAGAUAUAGUCGGACCUCUCCUUAAUGGGAGCUAGCGGAUGAAGUGAUGCAACACUGGAGCCGCUGGGAACUAAUUUGUAUGCGAAAGUAUAUUGAUUAGUUUUGGAGUACUCGUGGUCG
Outline: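 Pooled colonies went to amplicon sequencing on an Illumina HiSeq 2500 after six replicate transformations. The plates were LB agar with 100 μg/mL carbenicillin, 50 μM IPTG and 0.2% rhamnose, with or without 25 μg/mL kanamycin, incubated overnight at 37°C or 30°C. The E. coli BL21(DE3) library had all eight P1ex-region intron nucleotides randomised, the intron placed in the knt kanamycin-resistance gene on pET-22b(+). DiMSum fitness is the error-weighted combination of replicate fold changes, kanamycin against none, normalised to wild type.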

AGACAGCAAUAUUACGUGGU
self-splicing fitness (ln) (30 °C): -3.66 ± 0.14 | self-splicing fitness (ln) (37 °C): -2.13 ± 0.12

AGACAGCAAUAUUACGUUGG
self-splicing fitness (ln) (30 °C): -1.95 ± 0.094 | self-splicing fitness (ln) (37 °C): -1.99 ± 0.14

AGACAGCAAUAUUACGUUUC
self-splicing fitness (ln) (30 °C): -4.68 ± 0.36 | self-splicing fitness (ln) (37 °C): -3.7 ± 0.42

AGAGAGCAAUAUUACGAAAG
self-splicing fitness (ln) (30 °C): -4.41 ± 0.27 | self-splicing fitness (ln) (37 °C): -2.42 ± 0.22

AGAGAGCAAUAUUACGACAC
self-splicing fitness (ln) (37 °C): -1.4 ± 0.26

AGAGAGCAAUAUUACGAUAA
self-splicing fitness (ln) (37 °C): -2.71 ± 0.28

AGAGAGCAAUAUUACGCAAC
self-splicing fitness (ln) (37 °C): -1.44 ± 0.2

AGAGAGCAAUAUUACGCCAA
self-splicing fitness (ln) (30 °C): -2.71 ± 0.2 | self-splicing fitness (ln) (37 °C): -3.06 ± 0.43

AGAGAGCAAUAUUACGCCAG
self-splicing fitness (ln) (30 °C): -3.51 ± 0.35 | self-splicing fitness (ln) (37 °C): -2.94 ± 0.38

AGAGAGCAAUAUUACGCGUG
self-splicing fitness (ln) (30 °C): -3.83 ± 0.36 | self-splicing fitness (ln) (37 °C): -1.44 ± 0.18

AGAGAGCAAUAUUACGGACG
self-splicing fitness (ln) (30 °C): -2.64 ± 0.3 | self-splicing fitness (ln) (37 °C): -1.61 ± 0.44

AGAGAGCAAUAUUACGGGGA
self-splicing fitness (ln) (30 °C): -2.46 ± 0.25 | self-splicing fitness (ln) (37 °C): -1.84 ± 0.28

AGAGAGCAAUAUUACGUAAA
self-splicing fitness (ln) (30 °C): -3.76 ± 0.31 | self-splicing fitness (ln) (37 °C): -3.12 ± 0.31

AGAGAGCAAUAUUACGUCAC
self-splicing fitness (ln) (37 °C): -0.851 ± 0.42

AGAGAGCAAUAUUACGUCUC
self-splicing fitness (ln) (30 °C): -2.95 ± 0.43 | self-splicing fitness (ln) (37 °C): -3.37 ± 0.47

AGAGAGCAAUAUUACGUGAC
self-splicing fitness (ln) (37 °C): -1.43 ± 0.42

AGAUAGCAAUAUUACGACAU
self-splicing fitness (ln) (30 °C): -0.0342 ± 0.013 | self-splicing fitness (ln) (37 °C): 0.0833 ± 0.033

AGAUAGCAAUAUUACGACGU
self-splicing fitness (ln) (30 °C): 0.446 ± 0.097 | self-splicing fitness (ln) (37 °C): 0.203 ± 0.098

AGAUAGCAAUAUUACGAGCG
self-splicing fitness (ln) (30 °C): -0.464 ± 0.12 | self-splicing fitness (ln) (37 °C): -1.08 ± 0.15

AGAUAGCAAUAUUACGCAUA
self-splicing fitness (ln) (30 °C): -2.23 ± 0.16 | self-splicing fitness (ln) (37 °C): -0.55 ± 0.18

AGAUAGCAAUAUUACGGCAG
self-splicing fitness (ln) (30 °C): -0.945 ± 0.12 | self-splicing fitness (ln) (37 °C): -0.735 ± 0.14

AGAUAGCAAUAUUACGGGGC
self-splicing fitness (ln) (30 °C): -2.65 ± 0.2 | self-splicing fitness (ln) (37 °C): -3.29 ± 0.37

AGAUAGCAAUAUUACGGUUG
self-splicing fitness (ln) (30 °C): -3.03 ± 0.17 | self-splicing fitness (ln) (37 °C): -2.57 ± 0.29

AGAUAGCAAUAUUACGUAGG
self-splicing fitness (ln) (30 °C): -3.49 ± 0.17 | self-splicing fitness (ln) (37 °C): -1.41 ± 0.18

AGAUAGCAAUAUUACGUCAA
self-splicing fitness (ln) (30 °C): -1.15 ± 0.09 | self-splicing fitness (ln) (37 °C): -1.03 ± 0.1

AGAUAGCAAUAUUACGUCGG
self-splicing fitness (ln) (30 °C): -1.52 ± 0.14 | self-splicing fitness (ln) (37 °C): -1.26 ± 0.16

AGAUAGCAAUAUUACGUGAG
self-splicing fitness (ln) (30 °C): -1.89 ± 0.072 | self-splicing fitness (ln) (37 °C): -0.685 ± 0.08

AGAUAGCAAUAUUACGUGGA
self-splicing fitness (ln) (30 °C): -3.21 ± 0.25 | self-splicing fitness (ln) (37 °C): -2.37 ± 0.28

AGAUAGCAAUAUUACGUGUG
self-splicing fitness (ln) (30 °C): -2.48 ± 0.097 | self-splicing fitness (ln) (37 °C): -0.626 ± 0.098

AGCAAGCAAUAUUACGAAGU
self-splicing fitness (ln) (30 °C): -3.42 ± 0.27 | self-splicing fitness (ln) (37 °C): -1.58 ± 0.25

AGCAAGCAAUAUUACGACAA
self-splicing fitness (ln) (30 °C): -1.54 ± 0.15 | self-splicing fitness (ln) (37 °C): -0.436 ± 0.14

AGCAAGCAAUAUUACGACAG
self-splicing fitness (ln) (30 °C): -2.65 ± 0.14 | self-splicing fitness (ln) (37 °C): -1.45 ± 0.15

AGCAAGCAAUAUUACGCCAU
self-splicing fitness (ln) (30 °C): -3.14 ± 0.18 | self-splicing fitness (ln) (37 °C): -1.63 ± 0.13

AGCAAGCAAUAUUACGCCCC
self-splicing fitness (ln) (30 °C): 0.415 ± 0.15 | self-splicing fitness (ln) (37 °C): -0.728 ± 0.18

AGCAAGCAAUAUUACGCUCC
self-splicing fitness (ln) (30 °C): -3.78 ± 0.4 | self-splicing fitness (ln) (37 °C): -1.58 ± 0.39

AGCAAGCAAUAUUACGCUGC
self-splicing fitness (ln) (30 °C): -1.58 ± 0.2 | self-splicing fitness (ln) (37 °C): -3.1 ± 0.31

AGCAAGCAAUAUUACGCUUA
self-splicing fitness (ln) (30 °C): -2.94 ± 0.15 | self-splicing fitness (ln) (37 °C): -1.71 ± 0.11

AGCAAGCAAUAUUACGGAAU
self-splicing fitness (ln) (30 °C): -3.44 ± 0.15 | self-splicing fitness (ln) (37 °C): -0.957 ± 0.093

AGCAAGCAAUAUUACGGCUA
self-splicing fitness (ln) (30 °C): -1.07 ± 0.088 | self-splicing fitness (ln) (37 °C): -0.869 ± 0.093

AGCAAGCAAUAUUACGGGGA
self-splicing fitness (ln) (30 °C): -2.7 ± 0.14 | self-splicing fitness (ln) (37 °C): -2.1 ± 0.14

AGCAAGCAAUAUUACGGUAC
self-splicing fitness (ln) (30 °C): -4.18 ± 0.2 | self-splicing fitness (ln) (37 °C): -2.16 ± 0.16

AGCAAGCAAUAUUACGGUAU
self-splicing fitness (ln) (30 °C): -2.35 ± 0.075 | self-splicing fitness (ln) (37 °C): -0.546 ± 0.068

AGCAAGCAAUAUUACGUAUA
self-splicing fitness (ln) (30 °C): -2.91 ± 0.15 | self-splicing fitness (ln) (37 °C): -1.85 ± 0.15

AGCAAGCAAUAUUACGUAUC
self-splicing fitness (ln) (30 °C): -3.34 ± 0.26 | self-splicing fitness (ln) (37 °C): -1.41 ± 0.2

AGCAAGCAAUAUUACGUAUG
self-splicing fitness (ln) (30 °C): -3.61 ± 0.14 | self-splicing fitness (ln) (37 °C): -3.29 ± 0.18

AGCAAGCAAUAUUACGUCAG
self-splicing fitness (ln) (30 °C): -2.89 ± 0.16 | self-splicing fitness (ln) (37 °C): -1.55 ± 0.18

AGCAAGCAAUAUUACGUCAU
self-splicing fitness (ln) (30 °C): -1.5 ± 0.078 | self-splicing fitness (ln) (37 °C): -1.23 ± 0.084

AGCAAGCAAUAUUACGUCCU
self-splicing fitness (ln) (30 °C): 0.639 ± 0.099 | self-splicing fitness (ln) (37 °C): 0.541 ± 0.11

AGCAAGCAAUAUUACGUCGA
self-splicing fitness (ln) (30 °C): -1.99 ± 0.11 | self-splicing fitness (ln) (37 °C): -0.323 ± 0.097
